Test results published in the domain aggregation screens of Martell et al. (2025).

Experiment: soluble fraction after stress (log2 fold change); higher = more stays soluble; pooled small domains, quantitative proteomics
Details: stress: pH 4
Method in brief: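 With high-throughput quantitative proteomics, pooled custom libraries of small protein domains were measured after pH 4 stress. Each domain's soluble amount after the stress gives a fold change taken as aggregation propensity. Higher log2 values mean more of the domain stayed soluble.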

Row | Sequence | soluble fraction (log2)
1 | HMSPAETGIYHILVENGKPNRHGLDATNKNENWLRQFLITQNTRLEDVFLLLADDGGGIRFFKSQ | -0.658
2 | HMFAQDQLFKKDNSKVDVKILEINTTEIKYKLFTYQDGPTITVAKKDVALIIYQNGVHEVIT | -1.17
3 | HMRGGWESLTDREREIAVLAAEGHSNRTIASTLFISDRTVQSHVSRALRALGVDSRTGIPSLVTTATR | -0.217
4 | HMDEVLDQFVRGQIYGYIRANPGDIYSSIRDNLGLKNGVTTYHLDVLAREEYVYSEIDGTNRRFYPSGWEE | -2.23
5 | HMGGREEAGTDIARLLGYINDIHGEELIAKLEYYQKMLGSENFAVLMSRLPDGQKKELREQNLYSEYV | -0.298
6 | HMAGGVFELTGKVTADAKAGDLVYVKAATGAGTKPVVTTVKTGADVIIGWLKEPVSSASVDQKMQVVLA | 0.22
7 | HMTAQASDIEKVLQVIETLGFRGHTLPGENRTAIGVTGNRGSIDPAHFENLPGVADAIRVTKPY | -0.292
8 | HMSLTAQVFTDRGKVLLSENKFTEAIDQFTKALAMDKVYIEALNRRIEAYQHLGLTELAAKDEALLGTL | -1.01
9 | HMVMPTGRVRYYDAEKGFGFLSKDSGGDDVYVRSSALPAGVTSLKRGQKVEFGIIDGKRGEQALSVHLL | 0.0712
10 | HMINLGDLEVGHTYHTRMPILQNDLKYSHKSPIQIVAEHSIVYGVRVYIGFLNEHRVLVTADDV | -0.269
11 | HMLNLNEAEKSIYVLIKKNESNNLNKVKEDSNLSNKAWDKGIKNLVKNNLVKVVKSNEGLFIQLV | 0.196
12 | HMEKEYMKNVVGMEYRQARVLLGDMGLELAFQPVYETSDKYPTDVVVSTEPAADQPLTKGQTVILHIST | 0.299
13 | HMKRITKKQLSQQLEQFFSSQPGKKLTLKDIFRALHLDTHPLKMLAMDIMEEMAWDDFITKKGENAYQLNT | -0.725
14 | HMESPLNPTDVRRAAMDLLARREHGVEELRLKLKRRFGREEDFETIATEQLQRLVDEDLLSDTRF | -0.948
15 | HMTEQKNNEQQNAVNEKKQALKQLMEKGKEKGSLSYNEVNALLDKLEFTEDQKAIVYDQLHSEDIELQ | 0.22
16 | HMYNKKAYVNTNSDFLNVRSEASTESSVVDKLARGTEVNIVGNIQNGFYPIVLNEKNAWVSSDWISFEKPT | ≥ 0.43
17 | HMADASVTAYFKIAEDRLQGRLPDTFSEASLKARYQLTPAQLTAVLTRIAQEGWAERKPGYGWAFSSML | -1
18 | HMTKLSPKEKSILHIIGDNAGIKSGQIAKRLDIPSPTVKRILSDLVSQNLIEKFGTGPGTNYSI | 0.22
19 | HMHVYSYPAAVKIKNAVGREMMVTLLGRSGTHVQFARQDGEEFVYPISSLDLAAQTLISKYPNDGIKN | 0.0689
20 | HMPKYLNIYHELAQRIQEGALPAETKLPSETELMQEFEASRGTVRKAIDALQEKGFVRKHQGKGVFVLSQ | 0.152
21 | HMSENIQLQKEQLYQLIAQLPEQRQKIFRLHKIDNYSYQEISDFTGLSRKTIANHIYLAHQFILKKVKK | -0.28
22 | HMTLGEHILQYRTARGWSQEDLANALEVSRQSVSKWETDASTPELDKIVRLSEIFQVSIDELVTGKA | 0.0683
23 | HMHMIDDYLARIGQLIRDARQHRGWTQVQLAEALGTSQSAVNRIERGNQNISLEMIARIGEALGSEIVSLG | -0.64
24 | HMDPNAITSAQVTKLQVLANEKGFAERQARLTMWAEVIGRNVGTANELTKAEAHKLIEHMDALPV | -0.162
25 | HMIEINNLEDLKLMKEFILKNGKYGFGVFVGGKYIGLSDIGSVNSFKDTLGLPVVSLGNDDFKRFTEAH | -0.653
26 | HMKTPIEFGSVYNDPVRYVIGMSIKSAESINQAIYDMMKIFGDENNMNKFDSLPDEQAVLDMVNSF | -0.208

Row | Sequence | soluble fraction (log2)
27 | HMKLISVAVMRASDAAEIAGGTDSKTLMYRAGLGLFQSWDWHGKIDIVTGSGNNAGDGYVLALLL | -0.548
28 | HMPAAKARTWQEATHAFQRDFLLETLRRARFNAADAADQLGLARPALYTTAKRLGLDLVAERQRWEAEAH | 0.043
29 | HMIPNEKEAARWDALTAEHTAKLNALEGDALDKVGSHEDVSIKRAGVGDAAFREKILSRTHPDDLERALST | 0.3
30 | HMSGRPPTYTAEERSAVIAAALSRPADLGLPFASWTLDRLVAYLGEKGIGMKRSRMSEVLLAEGLKW | -0.0116
31 | HMHPSNQELTKVLAQGSELVLAQKYIEASQIFTRVIEIDQTWAEAWNKRATVFYLLQNYEASQKDIDEV | -0.135
32 | HMRPIWVQLADDFRHRIVSGQWPPGSKIPSVRELAAETGVNPNTVQRALGALDGEGLTATERTAGRFVTT | -0.0115
33 | HMNILDPTVMKNILDKNHEEFIAIYESAPLGQKTIINSMVFDKRLNGENVDANILMYLQNKTNIDYINIEP | -1.47
34 | HMPGTEAQDGEVLLDALRRIHPDSSTGTLRRMLTQGRVQVDGTTVHAAKAELTSGQHVEVVAR | -0.0746
35 | HMDIRMLLSDREEEIMILLSKGLSISEAANRMQIGQASAATYLNRARRKLKAETVRQAVAIWTGD | -0.422
36 | HMNIGVEQIEQMERGALITLWQELIDKPLPRHMSIVFLRQVLAFEVQSKQNGGLPRGFITLLNKQAD | -0.868
37 | HMRLIALPSVTDISIRQAEATLMSIGIKVSSIQYAPSEYKDLVLEVKYRGQSIIQGAKIPEGSSVVLVAGN | -0.122
38 | HMDDTPLNNVIKKIAALPENITLADKSAVLSAWEAYQALSVNLKAQVSNSELLIKAYETILQLEGEDQIK | -0.397
39 | HMSGAKLLAPVTGTLLRYTVAEGTKVSEGQTVIMLESMKMELEINAHKAGVIHFTAAAGAQVAEGDSLAEI | -0.419
40 | HMIDFDHADIERLWNSIIHYVPERQKLDFAIDFIKSLEDIGVEHDVLRGSAELDPKLEEAVNTVFE | -0.315
41 | HMIPEGKWMEDPISEGQIKFIETLIKQAIDSGQDALGAEAKQYLSSGEATKGNASSMIDKLKDAL | -0.479
42 | HMDDYRIEDMMTVVEEQVIRQKETNLSWFFKRAGSLNEIITIFLAALELIKVHRVYVKQEHNFDDIILRKE | -0.872
43 | HMENNIILNYVKDNLNITEKDAKDLIELLGSDYYHIKNETNKIAAFLDGQPYSFEKIKNLISIDKEY | -0.644
44 | HMEDKKQVLYELITDKSYRPLRFKELAVLLMVPKALRGELKQTLDELIKEGKITVDSSSRYRAA | 0.276
45 | HMEAMITEVKRINYGLISDISKSLDPFKSEGGHIIVDKRTNTFILTDLRANIEKMLWSIEIMD | -0.248
46 | HMVWNVEQIKRAVDQLPDGYRVVFTLYLFEGYDHREIADILGISEGGSKSQFNRAKSKLKEILTAMS | -1.2
47 | HMETFGEKDLDELIGRNVELITHDGKVREGLVDSVDRYNVSLVRYLDAGEVAMMVRRREVKAVRLK | -1.12
48 | HMGDLTVPDLSGLTVDQAKQRLKDMGLVLGKITTQEDSSKPDGVIISQSPSADGKINKGQLVDVVVNKLS | 0.206
49 | HMLLPANLTKSQRNIAERVARGQSNLEIAADLNITERTVKAHLTSIYEKTKTGNRLNLALLINLG | -0.17
50 | HMDDAIAEKTGGAVSSVNQRQAILDHIREAYGIELESLRSTDIERYLDDPEIPEPVKDILRDRLRGAK | 0.0292
51 | HMQETKDEGAQVLLNKINALVAAVQGQIITPEEAAIKLATDGDLDLDVDARVAAIEEFNKKLSEAQNN | -0.682
52 | HMNSNISYSEFLSQVEKGTINSVEITGNSIKGIYADGGEFITFSPGDPGLIDKLQRSDIEILATPPA | -0.593

Row | Sequence | soluble fraction (log2)
53 | HMGKTRSTDRTRRAILDAASDLMGKHGTSVSLARIAEAAGMSKGGLLHHFPSRNDLIRALGED | 0.396
54 | HMGNIIITPNPASDFIKIISNSPIIKFGFYDIYGNTINKKFNDNSINISDLPVGMYLINLNERYFKLLK | 0.021
55 | HMASATGVVTAASLNVRSGAGTNYSVVNTLAKGTKVTVLNTADGWYEIEATVNNEKITGYVSATYIAMD | -0.0486
56 | HMAIKWTPEIEDEVSNKLKEKWSPEQISAWLKKNKSIMISHQRIYQFIVEDKMSGGNLYRNLRQ | 0.172
57 | HMNRLEFLQGLKAELEGRVPHSIIQENLRYYDSYISDEAAKGQSEEDVVESLGGPRIIARTIVDAA | -0.52
58 | HMTEPKILTAEESQRLDLILVQQWPELGRRALRELVQQGGVRINGELALKAGQYVQAGERVEVAVP | -0.879
59 | HMSDSAFAEMRRELEALRNSNAEYERALSNFFPEAEDKALAAEAFYQNREYDELVAEREEANVIDGLKR | -0.815
60 | HMETEAGIKAYLSSSMIKGIGPVTAQRIVERFGKRTLYVLDQMPEKLLDISGISEAKLEEILNGYRKS | -0.532
61 | HMSFPLKRGSKGNRVTQLQNALVKKFGASILPKYGVDGMFGKEVEAALVRAKLPTSINESTYNSFV | -0.0036
62 | HMDKRYYYRILGLVGEPTRDQIEAAYETRIAKLRSSDYGDDPLYARRKISEVTMAYKVLTGS | 0.139
63 | HMNQSKYQTIADELKSKILSGEYPENTTIPPELQLQKDYQVSRHTIRQAIALLANEGFLRKEKGSGTYVDV | 0.254
64 | HMTRIHEEVVNQVHDLVKEGRFKAGDQLPSERELAEIFKVSRTSVREALRALETQGLIISRTGMGNFIAD | -0.472
65 | HMQYDESSQLGERFLNQALNALKADPDKVGDAQWEKLLKENSAKSRQEVLADIGLGKQLAIVIARELLS | -0.37
66 | HMKRANGTGSVFKLNGKRRNPWVARVTQGFDDKGRQKYVNLGYYKTKREAENELLSYNSNPYDAN | -0.0271
67 | HMFLPETEVKSFFHRGITKISPSLAMDIADFFRMPFAVILKRALALEVISDEQYRSFMTVKPEHV | -0.0531
68 | HMPVRIYEISKKLGLENKEVLATAKSLGIAAAKVPSSSLDKITAEYLEEEILKSHPEVAARLK | ≥ 0.43
69 | HMVDKDFKPLYASLERLDSTSIIEILDSNRIDYRIDQRSGALLVDADQIHQARLSLASAGMPA | -0.844
70 | HMTISDEAMQAGRDAFIQALVAMGAEKNADAMASIEKALSADPGNKEYLATRDLIKKSMGMKK | 0.138
71 | HMNRIEMTEPIIIKDLSRETGIPWVAIQKRLAQDGIMANINTTIEAEKAQLIAVDYGIELAVV | -0.54
72 | HMDAVTYAKGSSGETVREIQQLLLDWGYYSGEVDGIFGSRTEDAVEYFQRKNGLTVDGKVGPATLEALGIS | -0.349
73 | HMVEMIGLQMVGKSGIASTVLRPSGKVRIDGVVYDAVSEDGFIEKGQAVKVLRYETGQVYVEKL | 0.0132
74 | HMADPAVLIAELFRAMPEKRFSVKNLISATGAETREQKDYVREVVHSLSREGMIEQVAEGKYRLSASE | 0.241
75 | HMSEPTLESLRAEGAHHYDPARFHYLEVLARRMPGQHAAVQQVLASRLREAVAAYAGRRSLI | -0.252
76 | HMFERISELLTDEELAVYKRGRNANASSVPKHADIADYRRATGVEALFGYLYIKGEIDRINQLFELA | -0.635
